Consider 49 molecules from US20190040115A1 (IMMATICS BIOTECHNOLOGIES, published 2019).

For the test, the target named is T1, HLA-A*02:01 (human).
T1 construct: captured on streptavidin plates; also called peptide-receptive MHC molecules
Briefly: UV peptide exchange ELISA (anti-b2m); yield grade: + >10%, ++ >20%, +++ >50, ++++ >75%. The text has this:
Candidate peptides for T cell based therapies according to the present invention were further tested for their MHC binding capacity (affinity). The individual peptide-MHC complexes were produced by UV-ligand exchange, where a UV-sensitive peptide is cleaved upon UV-irradiation, and exchanged with the peptide of interest as analyzed. Only peptide candidates that can effectively bind and stabilize the peptide-receptive MHC molecules prevent dissociation of the MHC complexes. To determine the yield of the exchange reaction, an ELISA was performed based on the detection of the light chain (β2m) of stabilized MHC complexes. The assay was performed as generally described in Rodenko et al. (Rodenko et al., 2006).
96 well MAXISorp plates (NUNC) were coated over night with 2 ug/ml streptavidin in PBS at room temperature, washed 4× and blocked for 1 h at 37° C. in 2% BSA containing blocking buffer. Refolded HLA-A*02:01/MLA-001 monomers served as standards, covering the range of 15-500 ng/ml. Peptide-MHC monomers of the UV-exchange reaction were diluted 100 fold in blocking buffer. Samples were incubated for 1 h at 37° C., washed four times, incubated with 2 ug/ml HRP conjugated anti-β2m for 1 h at 37° C., washed again and detected with TMB solution that is stopped with […]. Absorption was measured at 450 nm. Candidate peptides that show a high exchange yield (preferably higher than 50%, most preferred higher than 75%) are generally preferred for a generation and production of antibodies or fragments thereof, and/or T cell receptors or fragments thereof, as they show sufficient avidity to the MHC molecules and prevent dissociation of the MHC complexes.
In general terms: ELISA stands for enzyme-linked immunosorbent assay.

Consider RLEAYLARV, for which the peptide exchange yield is 50 to 75%. In the case of LLGEGIPSA, the peptide exchange yield was greater than 75%. In the case of TLVAFLQQV it was greater than 75%. In the case of GLVDVLYTA it was 50 to 75%; in that of FLDASGAKL, greater than 75%. In the case of QLMEGKVVL it was greater than 75%; in that of RLPDQFSKL, 50 to 75%; in that of VLPAVLTRL, 50 to 75%. Take NLREILQNV: the peptide exchange yield lay in the range of 50 to 75%. In the case of RLDDKTTNV it was 50 to 75%. On to LLDEVLHTM, for which the peptide exchange yield is greater than 75%.

VVDDIVSKL: the peptide exchange yield fell in the range of 20 to 50%. Then VLDTLTKVL, with 50 to 75%.

As for YLDKTFYNL, the peptide exchange yield lay within 50 to 75%. Then FLDDQETRL, with 50 to 75%; and IQSETTVTV, with greater than 75%.

For the molecule TVIRPLPGL, the peptide exchange yield is 20 to 50%. Consider ILPSNLLTV, for which the peptide exchange yield lay in the range of 50 to 75%. In the case of LMDETMKEL it was greater than 75%; in that of SLKQTVVTL, 50 to 75%; in that of FLPQKIIYL, greater than 75%.

For the molecule ALFPGDVDRL, the peptide exchange yield lay in the range of 50 to 75%.

As for YIDDVFMGL, the peptide exchange yield lay in the range of 50 to 75%. As to SLDAVMPHL, the peptide exchange yield fell in the range of 50 to 75%. In the case of VIDDLIQKL it was 20 to 50%; in that of VLYSLVSKI, 50 to 75%; in that of FLEDLVPYL, greater than 75%. For SLDQIIQHL, the peptide exchange yield is 50 to 75%. Then FLDVKELML, with greater than 75%. Then TLSEICEFI, with greater than 75%; and AVDATVNQV, with 50 to 75%.

As to KQQASQVLV, the peptide exchange yield lay within 50 to 75%. Then TMIEICEKL, with greater than 75%. FVDPNGKISL: the peptide exchange yield is 50 to 75%. Consider SLIDFVVTC, for which the peptide exchange yield was in the range of 50 to 75%. Turning to YVDDFGVSV, the peptide exchange yield is 50 to 75%. For KMTQYITEL, the peptide exchange yield was greater than 75%. In the case of NVDENVAEL it was 20 to 50%; in that of VLPDDLSGV, 50 to 75%; in that of ALDPAYTTL, 50 to 75%. Then YVIDPIKGL, with 50 to 75%; and VLDVSFNRL, with 50 to 75%. In the case of TLIELLLPKL it was greater than 75%. On to FVDGSAIQV, for which the peptide exchange yield lay in the range of 50 to 75%. Then SLGLGFISRV, with 50 to 75%. Then TLISDIEAVKA, with 50 to 75%; and FAYDGKDYIAL, with 50 to 75%; and YLFAFLNHL, with greater than 75%. For the molecule VLYEMLYGL, the peptide exchange yield was greater than 75%.
